Laboratory results from article PMC7864924, “Structures of active-state orexin receptor 2 rationalize peptide and small-molecule agonist recognition and receptor activation” (Nature Communications, 2021).

T1: wildtype OX2R (Homo sapiens, UniProt O43614)
T1 sequence (O43614 1-444): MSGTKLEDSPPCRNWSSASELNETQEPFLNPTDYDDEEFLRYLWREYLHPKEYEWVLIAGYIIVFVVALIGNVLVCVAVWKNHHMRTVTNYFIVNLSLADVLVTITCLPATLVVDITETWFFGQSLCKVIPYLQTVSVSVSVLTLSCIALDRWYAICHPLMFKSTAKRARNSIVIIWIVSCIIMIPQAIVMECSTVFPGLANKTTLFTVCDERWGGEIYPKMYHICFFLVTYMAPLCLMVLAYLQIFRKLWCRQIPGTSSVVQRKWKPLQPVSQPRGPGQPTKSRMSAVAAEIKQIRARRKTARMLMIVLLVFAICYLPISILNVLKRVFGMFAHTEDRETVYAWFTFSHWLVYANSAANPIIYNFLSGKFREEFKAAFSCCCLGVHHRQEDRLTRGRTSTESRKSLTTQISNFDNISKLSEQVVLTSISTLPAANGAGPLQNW

B1: synthetic nanobody Sb51 (VHH)
VHH: QVQLVESGGGLVQAGGSLRLSCAASGFPVGRVMYWYRQAPGKEREWVAAISSHGDMTAYADSVKGRFTISRDNAKNTVYLQMNSLKPEDTAVYYCEVYVGYFYHGQGTQVTVS
notes: in the coordinates deposited here (complex with compound 1); Supplementary Data 1 lists the hits from which Sb51 was chosen; source: E. coli C41(DE3) periplasm, MBP fusion, purified (NiNTA, TEV cleavage, NiNTA, cation exchange); not shown: His10, N-terminal, cleaved

Assays:
wildtype OX2R = target: T1, wildtype OX2R; assay: Saturation binding of 125I-OxA to wildtype OX2R; details: CHO cell membranes, wild-type OX2R, room temperature, 6 h, pH 7.4; mean ± s.e.m., n = 3
[1] = target: T2, engineered OX2R carrying an additional amino-terminal Avi-tag, biotinylated (Homo sapiens, UniProt O43614, residues V261–A291 deleted, biotin on the Avi-tag (BirA biotin-protein ligase)); assay: grating-coupled interferometry; WAVE system (Creoptix); agonist-bound OX2R immobilised via the biotinylated Avi-tag on a neutravidin-coated WAVEchip 4PCP; details: both partners purified
T2 construct: orexin receptor type 2, human; as m1: truncated after residue R389, part of ICL3 (V261–A291) deleted; source: Expi293 cells, transiently transfected, purified in the presence of 50 µM small-molecule agonist, biotinylated with BirA; not shown: Avi-tag, N-terminal, kept

Molecule | Dissociation constant, pKD (wildtype OX2R) | Kd [1] [nM]
125I-OxA: radioligand, 125I-labelled OxA (PerkinElmer) (QPLPDCCRQKTCSCRLYELLHGAGNHAAGILTL) | 9.12 ± 0.05 | 
B1 |  | ~0.6
